T1: mouse SPNS2 (mouse, UniProt Q91VM4 1-549)
T1 sequence: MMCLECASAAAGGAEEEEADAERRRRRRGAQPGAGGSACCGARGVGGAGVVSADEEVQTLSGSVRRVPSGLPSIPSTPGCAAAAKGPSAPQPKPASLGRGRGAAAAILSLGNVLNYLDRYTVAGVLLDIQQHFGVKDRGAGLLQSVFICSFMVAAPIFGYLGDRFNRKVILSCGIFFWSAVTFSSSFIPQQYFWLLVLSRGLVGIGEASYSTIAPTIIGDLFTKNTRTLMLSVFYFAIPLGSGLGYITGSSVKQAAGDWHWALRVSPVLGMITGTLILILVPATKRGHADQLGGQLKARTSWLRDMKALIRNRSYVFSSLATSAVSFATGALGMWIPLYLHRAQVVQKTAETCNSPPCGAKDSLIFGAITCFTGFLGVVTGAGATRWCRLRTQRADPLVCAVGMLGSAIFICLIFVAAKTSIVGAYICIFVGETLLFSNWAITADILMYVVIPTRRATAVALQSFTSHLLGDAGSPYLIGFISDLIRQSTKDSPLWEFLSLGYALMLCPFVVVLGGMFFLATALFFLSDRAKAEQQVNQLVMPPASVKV

T2: Mutant 2 of human SPNS2 (FLAG tag inserted in extracellular loop 5) (human, UniProt Q8IVW8 1-549)
T2 construct: on HEK293 cells; also called extracellular loop 5 mutant
T2 sequence: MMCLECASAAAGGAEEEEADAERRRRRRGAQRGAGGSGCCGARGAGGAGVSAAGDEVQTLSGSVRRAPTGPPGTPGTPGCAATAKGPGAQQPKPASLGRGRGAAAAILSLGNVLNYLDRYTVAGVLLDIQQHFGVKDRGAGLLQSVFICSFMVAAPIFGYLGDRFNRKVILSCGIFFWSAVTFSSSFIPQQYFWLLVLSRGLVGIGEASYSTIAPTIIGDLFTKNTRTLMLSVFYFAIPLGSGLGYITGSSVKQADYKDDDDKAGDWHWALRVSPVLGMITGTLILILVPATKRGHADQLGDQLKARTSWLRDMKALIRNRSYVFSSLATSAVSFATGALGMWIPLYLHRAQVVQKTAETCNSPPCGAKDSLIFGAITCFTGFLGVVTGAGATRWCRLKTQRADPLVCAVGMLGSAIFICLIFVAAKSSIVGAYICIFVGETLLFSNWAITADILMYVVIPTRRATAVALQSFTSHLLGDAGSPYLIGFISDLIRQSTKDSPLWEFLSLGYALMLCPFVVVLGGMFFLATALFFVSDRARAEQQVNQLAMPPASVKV

T3: Mutant 4 of human SPNS2 (FLAG tag inserted in extracellular loop 11) (human, UniProt Q8IVW8 1-549)
T3 construct: on HEK293 cells; also called extracellular loop 11 mutant
T3 sequence: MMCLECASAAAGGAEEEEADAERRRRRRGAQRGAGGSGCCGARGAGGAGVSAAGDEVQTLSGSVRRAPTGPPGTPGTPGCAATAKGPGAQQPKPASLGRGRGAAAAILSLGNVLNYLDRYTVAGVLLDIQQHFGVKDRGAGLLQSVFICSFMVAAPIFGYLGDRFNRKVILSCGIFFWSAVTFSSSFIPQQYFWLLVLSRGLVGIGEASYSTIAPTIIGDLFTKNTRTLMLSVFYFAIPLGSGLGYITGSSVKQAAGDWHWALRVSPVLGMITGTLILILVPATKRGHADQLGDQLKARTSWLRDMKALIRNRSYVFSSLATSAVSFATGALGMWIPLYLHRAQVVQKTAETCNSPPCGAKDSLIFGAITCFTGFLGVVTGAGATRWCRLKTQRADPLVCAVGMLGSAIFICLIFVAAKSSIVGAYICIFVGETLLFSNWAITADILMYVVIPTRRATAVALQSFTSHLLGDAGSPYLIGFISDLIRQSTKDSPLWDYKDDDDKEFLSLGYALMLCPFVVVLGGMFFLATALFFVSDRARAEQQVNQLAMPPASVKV

T4: Mutant 3 of human SPNS2 (FLAG tag inserted in extracellular loop 7) (human, UniProt Q8IVW8 1-549)
T4 construct: on HEK293 cells; also called extracellular loop 7 mutant
T4 sequence: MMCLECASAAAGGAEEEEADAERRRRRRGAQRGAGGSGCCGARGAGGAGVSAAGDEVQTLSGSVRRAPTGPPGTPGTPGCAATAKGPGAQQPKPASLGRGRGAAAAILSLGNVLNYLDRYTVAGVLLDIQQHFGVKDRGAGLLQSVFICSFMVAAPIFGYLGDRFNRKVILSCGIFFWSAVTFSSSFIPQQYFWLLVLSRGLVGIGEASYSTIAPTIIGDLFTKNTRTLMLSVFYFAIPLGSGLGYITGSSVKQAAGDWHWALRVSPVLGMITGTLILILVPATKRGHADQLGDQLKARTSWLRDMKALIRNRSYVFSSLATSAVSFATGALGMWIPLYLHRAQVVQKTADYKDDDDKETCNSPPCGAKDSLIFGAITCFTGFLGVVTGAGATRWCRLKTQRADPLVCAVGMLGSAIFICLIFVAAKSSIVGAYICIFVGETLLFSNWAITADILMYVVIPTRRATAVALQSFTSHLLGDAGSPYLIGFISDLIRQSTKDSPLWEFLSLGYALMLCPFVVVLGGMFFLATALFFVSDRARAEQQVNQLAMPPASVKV

B1: 83-1110B (antibody, IgG2b, V domains shown)
VH: EVQLQQSGPEFVRPGTSVKFSCKVSGGSITSYFIHFVKQRPGQGLEWIGKIDPEDDSTKYGEKFKNKATLTADTSSNTAFLKLSSLTSEDTAIYFCTTLTGLDYWGQGVMVTVSS
VL: DIQMTQSPPVLSAAVGDRVTLSCKASRSLNKNLDWYQQKHGETPKLLIYHTHNLQTGIPSRFSGSGSDTDYTLTISSLQTEDVATYYCYQYHSGWTFGGGTRLELRR
B2: 94-1311E (antibody, V domains shown)
VH: EVQLQQSGAGLVRPRTSVRLSCKISGDSITAYYVHFVKQRPGQGLEWIGRIDPEDDSTKYSEKFKNKATLTADVSSSTAYLILSSLTSDDSATYFCSTLTGLDYWGQGVMVTVSS
VL: DIQMTQSPPVLSASVGDRVTLSCKASQSVHNKLDWYQQKHGEAPKLLIYYTHNLQTGIPSRFSGSGSGSDYTLTISSLRAEDVATYYCFQYYSGWTFGGGTKLEMKR
B3: 93-1310F (antibody, IgG2b, V domains shown)
VH: EVQLVETGGGLVQPGSSLKLSCATSGFTFSDTWMSWVRQAPGKGLEWVALIKDKNSNYEANYAESVKGRFTISRDDSKRRVYLQMFTLRDQDTATYYCTSHEDFYYYSSYYFDYWGHGVMVTVSS
VL: DIVLTQSPATLSVTPGESVSLSCRASQGISTSIHWYQQKSNGSPRLLIKYASQSISGIPSRFSGSGSGTDFTLRINRVESEDFSVYYCQQTYSLPLTFGSGTRLEIKR
B4: 33-0503E (antibody, IgG2b, V domains shown)
VH: EVQLVESGGGLVRPGGSMKLSCGASGFIFDNYYMTWVRQAPTKGLEWVASISSSGGNTYYRDSVRGRFTISRDNAGNTLSLQMGSLRAEDTATYHCAKEGYRGRYFDYWGQGVMVTVSS
VL: QVVLTQPNSVSTNLGSTVKLSCKRTTGNIGSNYVNWYQQHEGRSPTTMIYRDDERPDGVPDRFSGSIDRSSNSALLTINNVQTEDEAEYFCQSYSSGIIFGGGTKLTVL
B5: 49-0703G (antibody, IgG2b, V domains shown)
VH: EVQLVESGGGLVQPGRSMKLSCAASGFTFSNHYMAWVRQAPTKGLEWVASISTGGGNTYYRDSVKGRFTISRDNAKSTLYLQMDSLRSEDTATYYCARQDYSNYMGGFAYWGQGTLVTVSS
VL: QFVLTQPNSVSTNLGSTVKLSCKRSTGNIGNNYVNWYQQYEGRSPTTMIYRDDERPDGVPDRFSGSIDRSSNSALLTINNVQTEDEADYFCQSFSNGMFIFAGGTQLTVL

In the first test the target is T1, mouse SPNS2. Briefly: cell-based or functional assay.
For the molecule B1, the “pIC50, S1P transport inhibition (S1PR3 Ca2+ FLIPR bioassay)” value was 8 pIC50 (M).
The same measure, in the same setting: for B2 the value was 8.1 pIC50 (M); for B3, 7.9 pIC50 (M); for B4, 7.5 pIC50 (M).
With B5, the “pIC50, S1P transport inhibition (S1PR3 Ca2+ FLIPR bioassay)” value was 7.3 pIC50 (M).

Another test deals with T2, Mutant 2 of human SPNS2 (FLAG tag …). Briefly: flow cytometry, FLAG-insertion mutant. The procedure, abridged:
(§1)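 HEK 293 cells were lipofected with the mutant and cultured overnight, then stained 30 min at room temperature with anti-FLAG and anti-SPNS2 antibodies, each at 20 μg/mL. Detection used anti-mouse IgG-Alexa 647 and anti-rat IgG-FITC. Binding is the ratio of FITC-positive to Alexa 647-positive cell rate, scored (+) <0.1, (±) 0.1–<0.5, (−) ≥0.5.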
B1: the “FITC+/Alexa 647+ cell rate ratio” value is below 0.1 ratio.
B2: the “FITC+/Alexa 647+ cell rate ratio” value was below 0.1 ratio.
Regarding B3, the “FITC+/Alexa 647+ cell rate ratio” value was at least 0.5 ratio.
For the molecule B4, the “FITC+/Alexa 647+ cell rate ratio” value was below 0.1 ratio.
Still for that read-out and setting: for B5 the value was below 0.1 ratio.

The target of the next test is T3, Mutant 4 of human SPNS2 (FLAG tag …). Put plainly: flow cytometry, FLAG-insertion mutant. Summed up:
as §1
Background: In flow cytometry, cells or beads pass a laser one at a time.
In the case of B1, the “FITC+/Alexa 647+ cell rate ratio” value is at least 0.5 ratio.
Same read-out and setting: as for B2, the figure is at least 0.5 ratio; as for B3, at least 0.5 ratio.
For the molecule B4, the “FITC+/Alexa 647+ cell rate ratio” value was at least 0.5 ratio.
Same read-out and setting: as for B5, the figure is at least 0.5 ratio.

Another test has as its target T4, Mutant 3 of human SPNS2 (FLAG tag …). Put plainly: flow cytometry, FLAG-insertion mutant. Summed up:
as §1
For the molecule B1, the “FITC+/Alexa 647+ cell rate ratio” value was at least 0.5 ratio.
The same measure, in the same setting: as for B2, the figure is at least 0.5 ratio.
As to B3, the “FITC+/Alexa 647+ cell rate ratio” value was at least 0.5 ratio.
The same measure, in the same setting: as for B4, the figure is at least 0.5 ratio.
For the molecule B5, the “FITC+/Alexa 647+ cell rate ratio” value is at least 0.5 ratio.

(Values after patent publication US20210147523A1 (TEIJIN PHARMA, published 2021).)
